According to the nanobody polyreactivity screen of Harvey et al. (2022):

assay: yeast display, Sf9 membrane polyspecificity reagent, FACS + sequencing; frameworks hold sequencing errors
In short: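 A synthetic nanobody library was expressed on Saccharomyces cerevisiae BJ5465 by galactose induction for 36–48 hours. The library was stained for 1 hour at 4 °C with 10% biotinylated, detergent-solubilized Sf9 membrane reagent and enriched with streptavidin microbeads before FACS. Low and high (top ~1%) gates were set on anti-HA fluorescence for expression and streptavidin fluorescence for reagent binding, and each polyreactivity label reflects the gate of origin.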

Row | Sequence | polyreactivity (PSR sort gate)
1 | QVQLVESGGGLVQAGGSLRISCAASGRIFLFYAMGWYRQAPGKEREWVAAITYSGSTYYADSVKGRFTISRDNAKNTVYLQMNSLIPEDTAVYYCNARYRTYAGTYGYNYWGQGTQVTVSS | high polyreactivity
2 | QVQLVESGGGLVQAGGSLRISCAASGRIFRQNTMGWYRQAPGKERELVAAISRSGGSTYYADSVKGRFTISRENAKNTVYLQMNSLKPEDTAVYYCNKVTYIVAIWGSDIYVPSEFGYWGQGTQVTVSS | high polyreactivity
3 | QVQLVESGGGLVQAGGSLRISCAASGRIFRYYAMGWYRQAPGKERELVAAISNSGGRTYYADSVKRRFTISRDNAKNSVYLQMNSLKPEDTAVYYCKKAHSYRGVSDSDMGYWGQGTEVTVSS | high polyreactivity
4 | QVQLVESGGGLVQAGGSLRISCAASGRIFVVYVMGWYRQAPGKEREFVAAITWGGGNTYYADSVKGRFTISRDNAKNTVYLQMNSLKPEDTAVYYCNAVWYWGDMDYWGQGTQVTVSS | low polyreactivity
5 | QVQLVESGGGLVQAGGSLRISCAASGRIYPVYVMGWYRQAPGKERELVAAINYNGGSTTYADSVKGRFTISRDNAKNTVYLQMNSLKPADTAVYYCAAGTPAYVETEYEYWGQGTQVTVSS | low polyreactivity
6 | QVQLVESGGGLVQAGGSLRISCAASGRNFPNYAMGWYRQAPGKERELVAAITSSGGSTYYADSVKGRFTISRDNAKNTVYLQMNSLKPEDTAVYYCNAGSWIRNDYWGQGTQVTVSS | high polyreactivity
7 | QVQLVESGGGLVQAGGSLRISCAASGRSFWTYAMGWYRQAPGKERELVAAITWRGGSTSYADSVTGRFTISRDTAKNTVYLQMHSLKPEDTAVYYCAADTYSYLRGTYEYDYWGQGTQVTVSS | high polyreactivity
8 | QVQLVESGGGLVQAGGSLRISCAASGRTFGSYSMGWYRQAPGNEREEVAAISLSAGSTYYADYVKGRFTISRDNAKNTVYLQMNRLKAEDTAVYYCAAGTKWYSQVYIYFYWGQGTQVTVSS | low polyreactivity
9 | QVQLVESGGGLVQAGGSLRISCAASGRTFLKNTMGRYRQAPGKERELVAVITRNGDSTYADSVKGRFTISRDNAKNTVYLQMNSLKPEDTAVYYCATTYRDGVYELTTFDYWGQGTQVTVSS | low polyreactivity
10 | QVQLVESGGGLVQAGGSLRISCAASGRTFPRYAMGWYRQAPGKERELVAGISWSGGRTYYADSVKGRFTISRDNAKNTVYLQMNSLKPEDTAVYYCAVVSKNLSYRTTFYYWGQGTQVTVSS | high polyreactivity
11 | QVQLVESGGGLVQAGGSLRISCAASGRTFRVYSMGWYIQAPGKEWELVASISARSGSTYYADSVKGRFTISRDNAKNTVYLQLNSVKPEDTAVYYSAAARRGFKYDYWGQGTQVTVSS | high polyreactivity
12 | QVQLVESGGGLVQAGGSLRISCAASGRTFVVYAMGWYRPAPGKERELVAAIRGSGGSTNYADSVKGRFTISRDNAKNTVYLQMNSLKPEDTAVYYCAATSSLGDFRYDYWGQGTQVTVSS | high polyreactivity
13 | QVQLVESGGGLVQAGGSLRISCAASGRTFYTYDMGWYRQAPGKERQLVAAISSSGSTYYADSVKGRFTISRDNAKNTVYLQMNSLKPEDTAGYYCNARTSRYRRGGDSWGQGTQVTVSS | high polyreactivity
14 | QVQLVESGGGLVQAGGSLRISCAASGSIFARYAMGWYRQAPGKERELVAAISKRGGSTYYADSVKGRFTISRDNAKNTVYLQMNSLKPEDTAVYYCAAVSYPPYTTKMDYWGQGTLVTVSS | high polyreactivity
15 | QVQLVESGGGLVQAGGSLRISCAASGSIFDPYAMGWYRQAPGKERELVAAITSGGSTYYADSVKGRFTISRDNAKNTVYLQMNSLIPEDTAVYYCAKDFDIYYSKYDYWGQGTQVTVSS | low polyreactivity
16 | QVQLVESGGGLVQAGGSLRISCAASGSIFGLYAMGWYRQAPGKERELVAAINQSGGSTSYADSVKGRFTISRDNAKNTVYLQMNSLKPEDTAVYYCNRVRLNSEGFDYWGQGTQVTVSS | low polyreactivity
17 | QVQLVESGGGLVQAGGSLRISCAASGSIFGYAMACYRQGPGKERELVAAITSSGGSTYYADSVKGRFTISRDNAKNTVYLHKNSLKPEDTAGYYCNAYLRWYITLLRFLAGGDYWGQGYQVTVSS | high polyreactivity
18 | QVQLVESGGGLVQAGGSLRISCAASGSIFGYYAMGWYRHSPGTERELVAAISWSDGSTYYADSVKGRFTISRDNAKNTVYLQMNSLKPEDTAVYYCAARFTPYITSDDGHYDYWGQGTQVTVSS | low polyreactivity
19 | QVQLVESGGGLVQAGGSLRISCAASGSIFKKYAMGWYIQAPGKEREFVAAITRGTYYADSVKGRFTISRDNAKNTVYLQMNSLKPEDTAVYDCYREYWGRGYYRVRGEYDYWGQGTQVTVSS | low polyreactivity
20 | QVQLVESGGGLVQAGGSLRISCAASGSIFSWKDMGWYRQAPGKERELVAAITSGGSTYYADSVKGRFTISRDNAKNTVYLQMNSLKPEDTAVYYCAAVFLLFGFEWSYDYWGQGTQVTVTS | low polyreactivity
21 | QVQLVESGGGLVQAGGSLRISCAASGSIFVKNAMGWYRQAPGKEREFVAAITTSGGSTNYADSVKGRFTISRDNAKNTVYLQMNSLKPEDTAVYYCNTDIFPAAYDYWGQGTQVTVSS | low polyreactivity
22 | QVQLVESGGGLVQAGGSLRISCAASGSIFVLYAMGWYRQAPGKERELVATITWSGDSTYYADSVKGRFTISRDNAKNTVYLQMNSLKPEDTAVYYCNKRIWDQYDWGQGTQVTVSS | low polyreactivity

Row | Sequence | polyreactivity (PSR sort gate)
23 | QVQLVESGGGLVQAGGSLRISCAASGSIFYENTMGWYRQAPGKEREFVAAISRSGGSTYYADSVKGRFTISRDNAKNTVYLQMNSLKPEDTAVYYCAARSRPGYAVYYWGQGTQVTVSS | high polyreactivity
24 | QVQLVESGGGLVQAGGSLRISCAASGSIFYGYAMGWYRQAPGKERELVAAITWSGGSTYYADSVKGRFTISRDNAKNTVYLQMNSLNPEDTAVYFCNAVSTRFRVRTSDYWGQGTQVTVSS | high polyreactivity
25 | QVQLVESGGGLVQAGGSLRISCAASGSNQDSYTMGWYRQAPGKERELVATISTSGGSTYYADSVKGRFTISRDNAKHTVYLQLNSLKPEDTAVYYCNADDPFGPHRYNSWGQGTQVTVSS | low polyreactivity
26 | QVQLVESGGGLVQAGGSLRISCAASGSTFDANAMGRYRQAPGKEREMVAANSYSGGTTYYADSVKGRFTISRDNAKNTVYLQMNSLKQEDTAVYYCATRKAFTAGSYNVYYGEYYWGQGTQVTVSS | low polyreactivity
27 | QVQLVESGGGLVQAGGSLRISCAASGSTFDENAMGWYRQAPGKERELVAVISDSGGSTYYADSVKGRFTISRDNAKNTVYLQMNSLKPEDTAVYYCAKDVPPVYPTSSYDYWGQGTQVTVSS | low polyreactivity
28 | QVQLVESGGGLVQAGGSLRISCAASGSTFDFYTMGWYRQAHGKEREMVASISWSGRTYYADSVKGRFTISRDNAKNTVYLQMTSLKPEDTAVYYCARRYVVNRDWGDDYWGQGTQVTVSS | high polyreactivity
29 | QVQLVESGGGLVQAGGSLRISCAASGSTFDPNAMGWYRQAPGKERELVAVIDSGDGTTYYADSVKGRFTISRDIAKNTVSFQMISQKREDTAVYYCAVDESTSYYDDHEDYWGQRTQVTVSS | low polyreactivity
30 | QVQLVESGGGLVQAGGSLRISCAASGSTFGSYVMGWYRQAPGKERELVAAICGSGGSTYYADSVKGRFTISRDNAKHTVYLQMNSLKPEDTAVYYCAAYVYFPWYGYWGQATQVTVSS | high polyreactivity
31 | QVQLVESGGGLVQAGGSLRISCAASGSTFGVNARGWYRQAPGKERELVAGITWTGGSTYYADSVKGRFTISRDNAKNTVYVQMNSLKPEDTAVYFCAKAWYSSYYDDSEDSWGQGTQVTVSS | low polyreactivity
32 | QVQLVESGGGLVQAGGSLRISCAASGSTFLTNTLGWYRQAPGKERELVAAITLRGGRTYYADSVKGRFTISRDNAKNTVYLQMNSLKPEDTAVYYCNARNYYYPSDRDYWGQGTQVTVSS | low polyreactivity
33 | QVQLVESGGGLVQAGGSLRISCAASGSTFSRNAMGWYRQAPGKERELVAAISRRGDTTYYADSVKGRFTISRDNAKNTVYLQRNSLKPEDTGVYYCAASRYGYPKYGYWGQGTQVTVSS | high polyreactivity
34 | QVQLVESGGGLVQAGGSLRISCAASGSTFSRNVMGWYRQAPGKERELVAAISRGGSTNYADSVKGRFTISRDNAKKTVYLQMNSLKTEVTAVYYCNAPRLGKFYYWGQGTQVTVSS | low polyreactivity
35 | QVQLVESGGGLVQAGGSLRISCAASGSTFSTYAMGSYRTEPGKERELVASISNGGSTNYEDSVKGRFTISRDNAKNTVYLQMNSLKPEDTAVYYFNAESKAKYDYFGQGTQVTVSS | low polyreactivity
36 | QVQLVESGGGLVQAGGSLRISCAASGSTFSYYTMGWYRQAPGKERELVAAISRTGGSTYYADSVKGRFTISRDNAKNTVYLQMNSLKPEDTAVYYCAADWTRGSPGMDYWVQGTQVTVSS | high polyreactivity
37 | QVQLVESGGGLVQAGGSLRISCAASGSTFYIYSMGWYRQAPGKERELVARISGSGGSTYYADSVKVRFTISRDYAKNTVYLQMNSLKPEDTAVYYCAADDIYKYYLYYAFPYYRYDYWGLGTQVTVSS | low polyreactivity
38 | QVQLVESGGGLVQAGGSLRISCAASGSTINRYAMGWYRQAPWKERELVAAINWRGSRTYYADSVKGRFTISRDNAKNTVYLQMNSLKPEDTAVYDCAASLGANGFQGRMYYWGQGTQVTVSS | low polyreactivity
39 | QVQLVESGGGLVQAGGSLRISCAASGYTFGNYAMGWYRQAPGKERELVAAISWRGARTNYADSVKGRFTISRDNAKNTVYLQMNSLKPEDTAVYYCAAGYYYGYPPRDYWGQGTQVTVSS | high polyreactivity
40 | QVQLVESGGGLVQAGGSLRISCAASGYTSIIYAMGWYRQAPGTERECVASIRGRSGSTYYADSVKGRFTISRDNAKNTVYLQMNSLKPEDTAVYYCAARARYVNWQGFDYWGQGTQVTVSS | high polyreactivity
41 | QVQLVESGGGLVQAGGSLRISCAAYGRIFGYYALGWYRQAPGKERELVAAITSGGSTNYADSVKGRFTISRDNAKNTVYLQMNSLKPEDTAVYYCAARSWYFSWEMYYWGQGTQVTVSS | high polyreactivity
42 | QVQLVESGGGLVQAGGSLRISCAPSGFIYSYAMGWYRQAPGKERELVASITLNGGSTYYADSVKGRFTISRDNAKNTVYLQMNSLKPEDTAVYYCNADRASLSIGGYYRLWYDYWGQGTQVTVSS | high polyreactivity
43 | QVQLVESGGGLVQAGGSLRISCAPSGFTFGHYAMGWYRQAPGKERELVAAISYSGVRTYYADSVKGRFTISRDNAKNTVYLQMNSLKPEDTAVYYCNKYPAHYQTRRYDYWGQGTQVTVSS | high polyreactivity
